Reference: US8129345B2, “MUC1-IκB kinase complexes and their activities” (Dana-Farber Cancer Institute, Inc., priority 2006, dated 2012)
“Also recorded” adds a separate entry of the source. Each block holds one molecule with its values, some of them ahead of it.

Columns and labels:
[1] = molecular target: IKKγ (Homo sapiens, UniProt Q9Y6K9); experiment: In vitro GST pull-down binding to IKKγ; settings: GST pull-down with purified proteins, immunoblot
Method: FIG. 5B is a pair of photographs of immunoblots showing an interaction between MUC1-CD and IKKγ. GST- and GST-IKKγ bound to glutathione beads were incubated with purified MUC1-CD. The precipitates were immunoblotted (IB) with anti-MUC1-C antibodies. Commassie blue staining of the gel was performed to confirm that equal amounts of GST- and GST-IKKγ were used in the experiment. The molecular weights of proteins (as indicated on the left of the photographs) are expressed as kilodaltons (kDa).
(§1) FIG. 5C is a pair of photographs of immunoblots. GST- and the indicated GST-MUC1-CD fusion proteins or fragments bound to glutathione beads were incubated with purified IKKγ. The precipitates were immunoblotted (IB) with anti-IKKγ antibody. Commassie blue staining of the gel was performed to confirm that equal amounts of GST- and GST-MUC1 proteins were used in the experiment. The molecular weights of proteins (as indicated on the left of the photographs) are expressed as kilodaltons (kDa).
FIG. 5D is a pair of photographs of immunoblots. GST and the indicated GST-IKKγ fusion proteins bound to glutathione beads were incubated with MUC1-CD. The precipitates were immunoblotted (IB) with anti-MUC1-C antibody. Commassie blue staining of the gel was performed to confirm that equal amounts of GST- and GST-IKKγ proteins were used in the experiment. The molecular weights of proteins (as indicated on the left of the photographs) are expressed as kilodaltons (kDa).
as §1, with “FIG. 11B” for “FIG. 5C”, “of an immunoblot and Coomassie blue stained gel. GST” for “of immunoblots. GST-”, “proteins (MUC1-CD and MUC1-CD(mSRM))” for “proteins or fragments”, “with” for “with purified”, “with an” for “with”, “and GST-MUC1-CD” for “and GST-MUC1”
(§2) In vitro binding assays. Purified GST-MUC1-CD (glutathione s-transferase fused to the MUC1-CD polypeptide) was cleaved with thrombin to remove the GST moiety. GST, GST-IKKβ (DiDonato et al. (1997) Nature 388:548-554), GST-IKKβ (1-458), GST-IKKβ (458-756), GST-IKKγ (Prajapati et al. (2002) J. Biol. Chem. 277:24331-24339), GST-IKKγ (1-196) or GST-IKKγ (197-419) were then incubated with the MUC1-CD for 1 hour at 25° C. In other experiments, GST, GST-MUC1-CD, GST-MUC1-CD(1-45) or GST-MUC1-CD(46-72) were incubated with purified IKKβ or IKKγ. Adsorbates to glutathione-conjugated beads were analyzed by immunoblotting.

[2] = molecular target: T1, IKKβ (Homo sapiens, UniProt O14920); experiment: In vitro GST pull-down binding to IKKβ; settings: GST pull-down with purified proteins, immunoblot
T1 sequence (O14920 1-756): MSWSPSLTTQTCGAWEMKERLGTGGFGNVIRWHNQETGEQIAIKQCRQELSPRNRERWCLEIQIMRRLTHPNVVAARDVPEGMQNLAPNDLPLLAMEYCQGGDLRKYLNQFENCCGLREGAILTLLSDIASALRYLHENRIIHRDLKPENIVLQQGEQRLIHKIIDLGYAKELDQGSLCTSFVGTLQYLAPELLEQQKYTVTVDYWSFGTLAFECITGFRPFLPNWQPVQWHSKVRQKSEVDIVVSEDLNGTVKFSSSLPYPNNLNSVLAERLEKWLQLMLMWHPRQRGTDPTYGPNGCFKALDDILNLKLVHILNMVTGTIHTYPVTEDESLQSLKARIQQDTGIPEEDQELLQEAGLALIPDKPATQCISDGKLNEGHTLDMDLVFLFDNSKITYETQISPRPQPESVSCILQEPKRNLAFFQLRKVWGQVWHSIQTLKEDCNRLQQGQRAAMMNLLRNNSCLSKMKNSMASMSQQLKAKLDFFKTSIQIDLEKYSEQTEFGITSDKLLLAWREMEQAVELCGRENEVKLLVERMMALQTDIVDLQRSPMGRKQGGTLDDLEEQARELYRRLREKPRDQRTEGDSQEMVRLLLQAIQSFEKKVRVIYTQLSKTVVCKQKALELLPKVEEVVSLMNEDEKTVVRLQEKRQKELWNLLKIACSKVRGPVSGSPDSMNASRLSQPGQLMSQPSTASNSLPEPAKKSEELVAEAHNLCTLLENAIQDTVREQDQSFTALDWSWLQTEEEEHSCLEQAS
Method: FIG. 4B is a pair of photographs of immunoblots. Recombinantly expressed, purified GST- and GST-IKKβ proteins bound to glutathione-agarose beads were incubated with purified MUC1-CD protein. The precipitates were immunoblotted (IB) with anti-MUC1-C antibodies. Input of the GST and GST-IKKβ proteins was assessed by Coomassie blue staining. The molecular weights of proteins (as indicated on the left of the photographs) are expressed as kilodaltons (kDa).
FIG. 4C (top panel) is a schematic diagram of the amino acid sequence of (i) the MUC1-cytoplasmic domain (MUC1-CD) [amino acids 1-72; SEQ ID NO:2]; (ii) the MUC1-CD fragment [amino acids 1-45; SEQ ID NO:3]; and (iii) the MUC-CD fragment [amino acids 46-72; SEQ ID NO:4]. FIG. 4C (bottom panel) is a photograph of an immunoblot and a photograph of a Coomassie blue-stained electrophoretic gel. GST- and the indicated GST-MUC1-CD fusion proteins bound to glutathione beads were incubated with purified IKKβ. The precipitates were immunoblotted with anti-IKKβ. Input of the GST and GST-MUC1-CD fusion proteins was assessed by Coomassie blue staining. The molecular weights of proteins (as indicated on the left of the photographs) are expressed as kilodaltons (kDa).
FIG. 11A is a pair of photographs of an immunoblot and Coomassie-blue stained gel. GST and the indicated GST-MUC1-CD fusion proteins (MUC1-CD and MUC1-CD(mSRM)) bound to glutathione beads were incubated with IKKβ. The precipitates were immunoblotted (IB) with an anti-IKKβ antibody. Commassie blue staining of the gel was performed to confirm that equal amounts of GST- and GST-MUC1-CD proteins were used in the experiment. The molecular weights of proteins (as indicated on the left of the photographs) are expressed as kilodaltons (kDa).
(§3) In vitro binding assays. Purified GST-MUC1-CD (glutathione s-transferase fused to the MUC1-CD polypeptide) was cleaved with thrombin to remove the GST moiety. […] Adsorbates to glutathione-conjugated beads were analyzed by immunoblotting.

[3] = molecular target: IKKβ (Homo sapiens, UniProt O14920); experiment: In vitro incubation of IKKβ and IKKγ with ATP, phospho-IKKβ-Ser-181 immunoblot; assay type: biochemical; settings: MUC1 protein added to the reaction
Method: (§4) FIG. 13 is a series of photographs of immunoblots. GST, and GST-IKKγ fusion proteins bound to glutathione beads were incubated with MUC1-CD, MUC1-CD(mSRM), or IKKβ proteins as indicated. The GST-pull down precipitates were immunoblotted (IB) with antibodies specific for (from top to bottom) phosphor-IKKβ-Ser-181 (first panel), IKKγ (second panel), IKKβ (third panel), or MUC1 (fourth panel) as indicated. The molecular weights of proteins (as indicated on the left of the photographs) are expressed as kilodaltons (kDa).
Target sequence in this assay (Q9Y6K9 whole entry partner, one chain of several, the tested form may be a part): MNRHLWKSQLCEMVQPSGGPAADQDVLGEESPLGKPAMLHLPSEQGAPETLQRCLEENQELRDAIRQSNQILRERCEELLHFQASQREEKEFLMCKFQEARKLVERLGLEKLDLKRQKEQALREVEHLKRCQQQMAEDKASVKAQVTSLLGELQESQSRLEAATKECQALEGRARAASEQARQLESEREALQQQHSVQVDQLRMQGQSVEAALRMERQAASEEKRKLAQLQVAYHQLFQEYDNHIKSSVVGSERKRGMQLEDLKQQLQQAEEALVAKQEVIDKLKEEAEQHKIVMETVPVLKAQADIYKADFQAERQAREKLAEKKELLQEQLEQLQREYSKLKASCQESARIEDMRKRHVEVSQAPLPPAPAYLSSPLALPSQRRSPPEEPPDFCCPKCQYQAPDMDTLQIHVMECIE

[4] = molecular target: IKKβ-IKKγ complexes (Homo sapiens, UniProt O14920+Q9Y6K9); experiment: In vitro association of IKKβ with GST-IKKγ in absence and presence of MUC1-CD proteins; assay type: binding; settings: purified IKKβ and GST-IKKγ, with or without added MUC1 protein
Method: FIG. 7C is a series of photographs of immunoblots. GST- or GST-IKKγ bound to glutathione beads was incubated with IKKβ in the absence and presence of MUC1-CD protein. The precipitates were immunoblotted (IB) with anti-IKKβ (upper panel). Input amounts of the various proteins were assessed by immunoblotting with the indicated antibodies (lower 3 panels). The molecular weights of proteins (as indicated on the left of the photographs) are expressed as kilodaltons (kDa).
as §4, with “12” for “13”, “for” for “for (from top to bottom) phosphor-IKKβ-Ser-181 (first panel),”, “(top” for “(second”, “(middle” for “(third”, “(bottom” for “(fourth”
as §3

[5] = molecular target: T2, MUC1-CD (Homo sapiens, UniProt P15941); experiment: In vitro GST pull-down of GST-IKKβ fragments with MUC1-CD; assay type: binding; settings: GST-IKKβ (1-458) and GST-IKKβ (458-756) incubated with MUC1-CD
T2 construct: the MUC1-cytoplasmic domain (MUC1-CD) [amino acids 1-72; GST (N, cleaved yes); made in house
T2 sequence (P15941 1184-1255): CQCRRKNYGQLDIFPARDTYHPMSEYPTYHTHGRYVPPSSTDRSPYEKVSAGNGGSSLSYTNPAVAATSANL
Method: FIG. 4D is a pair of photographs of immunoblots. GST and the indicated GST-IKKβ fusion proteins bound to glutathione beads were incubated with MUC1-CD. The precipitates were immunoblotted with anti-MUC1-C antibody. The molecular weights of proteins (as indicated on the left of the photographs) are expressed as kilodaltons (kDa).
as §2

Chain of IKKγ (Q9Y6K9 whole entry): as the sequence (Q9Y6K9 whole entry partner, one chain of several, the tested form may be a part) above
Chain of IKKβ-IKKγ complexes (Q9Y6K9 whole entry, one chain of several): as the sequence (Q9Y6K9 whole entry partner, one chain of several, the tested form may be a part) above

- binding to IKKγ [1]: not
Molecule: MUC1-CD(1-45): fragment consisting of amino acids 1-45 (SEQ ID NO:3) of the human MUC1 CD (CQCRRKNYGQLDIFPARDTYHPMSEYPTYHTHGRYVPPSSTDRSP; listed as Homo sapiens)
- binding to IKKβ [2]: confers the ability to bind to IKKβ; also recorded: binds to IKKβ

- binding to IKKγ [1]: binds to IKKγ
Molecule: MUC1-CD(46-72): fragment consisting of amino acids 46-72 (SEQ ID NO:4) of the human MUC1 CD (YEKVSAGNGGSSLSYTNPAVAATSANL; listed as Homo sapiens)

- extent of IKKβ phosphorylation on Ser-181 [3]: attenuated
- binding to IKKγ [1]: attenuated binding to IKKγ
- binding to IKKβ [2]: no effect
- interaction between IKKβ and IKKγ [4]: substantially less effective
Molecule: MUC1-CD(mSRM): MUC1-CD with serine-rich motif SAGNGGSSLS mutated to AAGNGGAAAA (SEQ ID NO:14) (Mutation of the Serine rich motif from human MUC1 CD)

B1: IKKβ (1-458): fragment of amino acids 1-458 (SEQ ID NO:7) of human IKKβ (protein, listed as Homo sapiens)
chain: MSWSPSLTTQTCGAWEMKERLGTGGFGNVIRWHNQETGEQIAIKQCRQELSPRNRERWCLEIQIMRRLTHPNVVAARDVPEGMXNLAPNDLPLLAMEYCQGGDLRKYLNQFENCCGLREGAILTLLSDIASALRYLHENRIIHRDLKPENIVLQQGEQRLIHKIIDLGYAKELDQGSLCTSFVGTLQYLAPELLEQQKYTVTVDYWSFGTLAFECITGFRPFLPNWQPVQWHSKVRQKSEVDIVVSEDLNGTVKFSSSLPYPNNLNSVLAERLEKWLQLMLMWHPRQRGTDPTYGPNGCFKALDDILNLKLVHILNMVTGTIHTYPVTEDESLQSLKARIQQDTGIPEEDQELLQEAGLALIPDKPATQCISDGKLNEGHTLDMDLVFLFDNSKITYETQISPRPQPESVSCILQEPKRNLAFFQLRKVWGQVWHSIQTLKEDCNRLQQGQRAAMMNL
modifications: not fully specified; X: residue not identified in the source
- binding of MUC1 to IKKβ fragments [5]: MUC1 binds directly with the IKKβ N-terminal region
